These results are taken from doi:10.1101/2021.11.02.466972.

The target in the data set is T1, MBP-CahR (Pseudomonas putida KT2440) (UniProt Q88GQ3).
T1 sequence: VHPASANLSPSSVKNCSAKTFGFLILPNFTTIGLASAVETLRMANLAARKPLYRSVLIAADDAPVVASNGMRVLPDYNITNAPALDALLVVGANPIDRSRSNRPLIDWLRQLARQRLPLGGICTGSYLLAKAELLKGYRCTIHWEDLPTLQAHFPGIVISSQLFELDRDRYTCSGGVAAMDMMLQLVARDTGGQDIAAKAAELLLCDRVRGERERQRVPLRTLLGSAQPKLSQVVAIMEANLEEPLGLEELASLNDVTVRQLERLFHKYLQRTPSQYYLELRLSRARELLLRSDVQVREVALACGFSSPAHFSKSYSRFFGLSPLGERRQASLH
Description: EMSA. As to conditions: buffer, not given.

For the sequence “GTTTGTCCGAGACTTTGTGGCCGCCTGGCAGAAGGTCATGGAGCTGGACCGCTTTGATCTGAAATAGCGTTGCCTGGCGGGGGGGGCGCGCTCAGCGCCCCCTTGGCCAGTGGTTATCCCGCCAATTCCAGGTCGGATAGATACAAAAGTGTCCTCGTCGGTTCTGTTGCAATGCTTCTCAGGCGGCCGGCCTGAACAGCGTGCTCACAACGACAAGGAACCCCGACCATGCAAATGCCCAAGACC (double strand) [creA promoter probe]”, the binding result is on record as “binds”.
